Test results as given in the supplement of paper PMC10567573.

B1: NR2F2 (parent)
chain: NIPFFPDLQITDQVALLRLTWSEL

Variants of: B1
Experiment: protein stability index of a GFP-peptide fusion (GPS, HEK-293T) (PSI 1-6); higher = more stable
Conditions: c terminus: a fixed tail appended
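Note: lentivirally expressed fusions sorted by FACS into six bins by GFP to DsRed ratio, PSI derived from sequencing read proportions per bin multiplied by bin number.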

Protein stability index, by site and new letter:
V14: R 1.78 | L 2.72 | E 1.9 | S 1.74 | P 1.87 | Q 1.99 | C 3.12 | K 2.13 | A 1.7 | W 3.25 | D 1.57 | F 2.04 | H 1.81 | Y 2.03 | N 1.89 | I 2.81 | G 1.45 | M 2.14 | T 2.38
P6: A 2.97 | C 1.8 | K 2 | Y 3.14 | E 2.5 | N 2.81 | T 2.77 | G 3.94 | S 2.52 | H 2.31 | M 2.25 | F 3.43 | R 1.51 | V 3.65 | D 2.23 | Q 2.32 | I 3.02
P3: C 2.88 | V 3.79 | I 2.13 | A 3.65 | K 3.61 | S 1.41 | N 2.28 | L 1.92 | H 1.82 | G 2.86 | E 2.12 | D 2.43 | Q 3.08 | W 3.62 | T 2.46
D7: E 2.4 | L 2.88 | I 2.86 | A 1.65 | R 2.46 | C 2.67 | H 2.53 | G 3.35 | S 3.27 | M 3.45 | Q 3.44 | T 4.43 | Y 2.79 | V 2 | F 2.25 | W 4.12 | K 2.03 | P 2.46 | N 2.78
R18: K 2.52 | E 2.63 | D 1.54 | N 2.45 | F 2.89 | Q 2.18 | W 3.72 | M 2.28 | G 2.25 | V 2.27 | S 2.13 | Y 2.75 | P 2.21 | I 3.87 | A 2.33 | T 2.18 | C 2.63 | L 2.89 | H 1.39
L16: P 1.86 | M 3.26 | W 1.65 | G 2.02 | C 2.65 | Q 2.33 | F 2.62 | V 2.34 | A 2.41 | T 3.48 | K 1.61 | N 2.03 | E 1.63 | I 2.59 | H 1.67 | D 2.02 | R 1.84 | S 2.1
F5: L 1.56 | H 1.79 | R 2.34 | P 1.49 | C 3.66 | G 1.7 | K 2.17 | D 2 | E 1.67 | M 1.78 | N 1.73 | Y 2.26 | Q 2.13 | W 1.68 | A 1.98 | V 2.41 | I 2.26 | T 1.49 | S 2.16
Q13: P 2.57 | D 1.85 | W 2.93 | E 2.2 | N 1.97 | I 4.15 | A 2.75 | G 1.29 | M 4.27 | V 2.66 | C 3.12 | R 1.92 | K 2.41 | L 4.11 | H 3.09 | F 1.69 | S 2.33 | T 3.06
L8: R 1.99 | M 2.51 | C 1.92 | A 2.32 | V 2.09 | Q 2.22 | P 2.25 | W 2.64 | T 2.73 | D 1.98 | N 1.86 | Y 2.05 | S 1.82 | I 2.92 | E 2.11 | H 2 | G 1.47 | F 3.11 | K 2.7
T20: A 1.83 | C 2.16 | G 2.23 | E 1.96
